Experimental data: paper PMC4990422, “Coupling between the DEAD-box RNA helicases Ded1p and eIF4A” (eLife, 2016)
pKd: −log10 of the molar value.

Columns and labels:
[1] = target: Ded1p (wild type, N-terminal His6-tag) (S. cerevisiae) (UniProt P06634); test: cross-linking; formaldehyde 1% (v/v), 30 min, room temperature; Ded1p 0.3 µM, eIF4A 2 µM or as indicated, RNA 2 µM (16 bp, 25 nt 3'-overhang), 0.5 mM ADPNP-MgCl2, unwinding buffer; Western blot with α-Ded1p
Ded1p-eIF4A-eIF4G = target: T1, Ded1p-eIF4A-eIF4G (Saccharomyces cerevisiae, UniProt P06634); test: global fit of thermodynamic model to RNA unwinding data; assay type: biochemical; conditions: unwinding reactions, RNA 16 bp with 25 nt 3' overhang; fitted with energy-conservation constraints; RNA-bound complex; some ATP constants given only as limits
T1 construct: gene DED1; His6-Ded1p, His6-eIF4A, GST-S-tag-eIF4G1-His; eIF4G preparation contains eIF4E; with ATP-dependent RNA helicase eIF4A; Eukaryotic initiation factor 4F subunit p150; Eukaryotic translation initiation factor 4E
T1 sequence (P06634 2-604, one chain of several): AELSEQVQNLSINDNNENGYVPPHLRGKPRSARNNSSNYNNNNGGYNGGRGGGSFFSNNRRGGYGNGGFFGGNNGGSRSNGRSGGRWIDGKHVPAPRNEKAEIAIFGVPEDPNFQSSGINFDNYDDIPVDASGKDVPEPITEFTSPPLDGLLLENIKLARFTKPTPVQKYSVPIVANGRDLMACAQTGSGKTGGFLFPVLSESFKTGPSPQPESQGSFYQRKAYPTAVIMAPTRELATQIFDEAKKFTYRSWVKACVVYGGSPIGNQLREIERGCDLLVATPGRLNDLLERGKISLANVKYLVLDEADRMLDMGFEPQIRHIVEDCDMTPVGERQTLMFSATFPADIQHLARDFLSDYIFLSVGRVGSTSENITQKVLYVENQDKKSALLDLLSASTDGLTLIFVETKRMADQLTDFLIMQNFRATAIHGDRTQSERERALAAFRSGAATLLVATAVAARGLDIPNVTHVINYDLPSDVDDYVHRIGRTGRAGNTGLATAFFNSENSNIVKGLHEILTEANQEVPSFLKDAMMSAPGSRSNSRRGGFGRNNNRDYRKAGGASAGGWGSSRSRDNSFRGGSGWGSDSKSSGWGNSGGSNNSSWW
T1 sequence (P39935 whole entry partner, one chain of several): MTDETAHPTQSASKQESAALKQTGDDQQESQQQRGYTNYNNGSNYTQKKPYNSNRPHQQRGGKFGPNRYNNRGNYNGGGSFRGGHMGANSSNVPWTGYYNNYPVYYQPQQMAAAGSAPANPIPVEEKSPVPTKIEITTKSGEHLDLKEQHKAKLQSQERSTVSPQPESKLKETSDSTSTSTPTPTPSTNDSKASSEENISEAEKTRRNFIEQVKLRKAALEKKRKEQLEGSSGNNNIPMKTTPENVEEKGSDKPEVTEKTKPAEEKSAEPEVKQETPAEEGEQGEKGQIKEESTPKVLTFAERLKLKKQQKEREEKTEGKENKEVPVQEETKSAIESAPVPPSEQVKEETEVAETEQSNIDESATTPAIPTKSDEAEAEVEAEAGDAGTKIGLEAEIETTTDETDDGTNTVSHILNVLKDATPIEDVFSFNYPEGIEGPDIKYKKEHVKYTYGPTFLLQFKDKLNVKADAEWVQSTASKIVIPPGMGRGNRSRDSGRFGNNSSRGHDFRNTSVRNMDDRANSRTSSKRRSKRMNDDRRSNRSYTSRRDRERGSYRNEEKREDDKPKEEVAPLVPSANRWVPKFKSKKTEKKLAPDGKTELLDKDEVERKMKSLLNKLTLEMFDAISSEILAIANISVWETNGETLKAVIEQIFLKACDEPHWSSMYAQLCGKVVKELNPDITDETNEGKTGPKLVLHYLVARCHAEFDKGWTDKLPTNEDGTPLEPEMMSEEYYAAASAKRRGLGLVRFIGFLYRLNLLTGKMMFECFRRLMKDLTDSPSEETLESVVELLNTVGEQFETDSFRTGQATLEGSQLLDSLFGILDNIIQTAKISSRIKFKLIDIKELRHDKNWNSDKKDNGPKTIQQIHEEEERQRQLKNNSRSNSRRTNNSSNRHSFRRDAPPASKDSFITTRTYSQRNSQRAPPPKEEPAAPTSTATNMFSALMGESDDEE

[2] = target: eIF4G-eIF4E complex (Saccharomyces cerevisiae) (UniProt P39935); conditions: cited from earlier work
Chain of eIF4G-eIF4E complex (Saccharomyces cerevisiae) (P39935 whole entry, chain 1 of 2): as the sequence (P39935 whole entry partner, one chain of several) above
Chain of eIF4G-eIF4E complex (Saccharomyces cerevisiae) (P07260 whole entry, chain 2 of 2, further chain): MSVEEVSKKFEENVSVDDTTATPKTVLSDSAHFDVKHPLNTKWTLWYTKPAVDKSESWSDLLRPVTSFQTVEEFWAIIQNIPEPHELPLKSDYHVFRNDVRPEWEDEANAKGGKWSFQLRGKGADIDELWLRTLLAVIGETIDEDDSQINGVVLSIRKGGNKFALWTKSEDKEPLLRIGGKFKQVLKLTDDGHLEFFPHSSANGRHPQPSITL

eIF4A (S. cerevisiae) [3] = target: T2, eIF4A (S. cerevisiae) (UniProt P10081); test: global fit of RNA unwinding time courses to a thermodynamic model; K1/2 of a binding step calculated with the model of Figure 4A; step without RNA, ATP bound to Ded1p
T2 sequence: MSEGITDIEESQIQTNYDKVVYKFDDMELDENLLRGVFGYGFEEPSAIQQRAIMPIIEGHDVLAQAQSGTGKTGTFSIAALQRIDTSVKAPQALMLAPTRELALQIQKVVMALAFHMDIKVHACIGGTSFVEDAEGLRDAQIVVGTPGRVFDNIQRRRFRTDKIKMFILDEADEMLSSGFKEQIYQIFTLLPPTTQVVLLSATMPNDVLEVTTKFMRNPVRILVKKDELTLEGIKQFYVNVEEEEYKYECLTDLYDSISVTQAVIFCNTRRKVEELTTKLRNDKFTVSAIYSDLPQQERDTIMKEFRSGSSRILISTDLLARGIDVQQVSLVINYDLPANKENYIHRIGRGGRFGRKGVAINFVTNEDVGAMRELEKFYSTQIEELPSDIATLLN

eIF4A (S. cerevisiae) [4] = target: T2, eIF4A (S. cerevisiae); test: global fit of RNA unwinding time courses to a thermodynamic model; K1/2 of a binding step calculated with the model of Figure 4A; RNA bound to the binder before the step, ATP bound to Ded1p and to eIF4A
eIF4A (S. cerevisiae) [5] = target: T2, eIF4A (S. cerevisiae); test: global fit of RNA unwinding time courses to a thermodynamic model; K1/2 of a binding step calculated with the model of Figure 4A; RNA bound to the target before the step, ATP bound to Ded1p and to eIF4A
eIF4A (S. cerevisiae) [6] = target: T2, eIF4A (S. cerevisiae); test: global fit of RNA unwinding time courses to a thermodynamic model; K1/2 of a binding step calculated with the model of Figure 4A; RNA bound to the binder before the step, ATP bound to Ded1p
eIF4A (S. cerevisiae) [7] = target: T2, eIF4A (S. cerevisiae); test: global fit of RNA unwinding time courses to a thermodynamic model; K1/2 of a binding step calculated with the model of Figure 4A; RNA bound to the binder before the step, no ATP
eIF4A (S. cerevisiae) [8] = target: T2, eIF4A (S. cerevisiae); test: global fit of RNA unwinding time courses to a thermodynamic model; K1/2 of a binding step calculated with the model of Figure 4A; RNA bound to the target before the step, ATP bound to Ded1p
eIF4A (S. cerevisiae) [9] = target: T2, eIF4A (S. cerevisiae); test: global fit of RNA unwinding time courses to a thermodynamic model; K1/2 of a binding step calculated with the model of Figure 4A; RNA bound to the target before the step, no ATP
eIF4A (S. cerevisiae) [10] = target: T2, eIF4A (S. cerevisiae); test: global fit of RNA unwinding time courses to a thermodynamic model; K1/2 of a binding step calculated with the model of Figure 4A; step without RNA, ATP bound to eIF4A
eIF4A (S. cerevisiae) [11] = target: T2, eIF4A (S. cerevisiae); test: global fit of RNA unwinding time courses to a thermodynamic model; K1/2 of a binding step calculated with the model of Figure 4A; step without RNA, ATP bound to Ded1p and to eIF4A
eIF4A (S. cerevisiae) [12] = target: T2, eIF4A (S. cerevisiae); test: global fit of RNA unwinding time courses to a thermodynamic model; K1/2 of a binding step calculated with the model of Figure 4A (Kintek Global Explorer; 16 bp duplex, 25 nt 3' overhang); step without RNA and without ATP
eIF4A (S. cerevisiae) [13] = target: T2, eIF4A (S. cerevisiae); test: global fit of RNA unwinding time courses to a thermodynamic model; K1/2 of a binding step calculated with the model of Figure 4A; RNA bound to the target before the step, ATP bound to eIF4A
eIF4A (S. cerevisiae) [14] = target: T2, eIF4A (S. cerevisiae); test: global fit of RNA unwinding time courses to a thermodynamic model; K1/2 of a binding step calculated with the model of Figure 4A; RNA bound to the binder before the step, ATP bound to eIF4A

Chain of Ded1p (P06634 whole entry): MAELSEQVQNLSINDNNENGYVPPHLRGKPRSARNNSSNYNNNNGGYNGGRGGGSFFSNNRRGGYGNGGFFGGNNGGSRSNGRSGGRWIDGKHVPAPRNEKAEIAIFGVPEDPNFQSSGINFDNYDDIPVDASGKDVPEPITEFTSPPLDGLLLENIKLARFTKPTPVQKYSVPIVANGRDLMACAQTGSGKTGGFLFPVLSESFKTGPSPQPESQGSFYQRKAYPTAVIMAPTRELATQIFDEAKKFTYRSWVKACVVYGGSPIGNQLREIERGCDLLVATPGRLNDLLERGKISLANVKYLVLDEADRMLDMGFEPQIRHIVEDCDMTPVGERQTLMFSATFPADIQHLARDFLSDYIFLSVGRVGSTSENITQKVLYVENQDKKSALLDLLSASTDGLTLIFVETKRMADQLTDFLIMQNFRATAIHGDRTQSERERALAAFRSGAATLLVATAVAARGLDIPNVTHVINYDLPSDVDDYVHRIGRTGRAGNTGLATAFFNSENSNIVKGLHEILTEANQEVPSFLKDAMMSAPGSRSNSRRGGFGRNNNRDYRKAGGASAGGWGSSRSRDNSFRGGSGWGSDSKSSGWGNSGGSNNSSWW
Chain of Ded1p (wild type, N-terminal His6-tag) (P06634 whole entry): as above

Compound: Ded1p (wild type, N-terminal His6-tag) (from UniProt P06634 1-604) (enzyme; other documents disagree on this pair)
- stoichiometry N [1]: 3

Compound: Nc1ncnc2c1ncn2[C@@H]1O[C@H](COP(=O)(O)OP(=O)(O)OP(=O)(O)O)[C@@H](O)[C@H]1O [ATP]
- K1/2 (Ded1p-eIF4A-eIF4G): ATP binding to Ded1p-eIF4G-eIF4A-RNA complex

Compound: eIF4A (from UniProt P10081)
- pKd [2]: > 7.52

Compound: Ded1p (from UniProt P06634 1-604) (enzyme; other documents disagree on this pair)
- pKd (eIF4A (S. cerevisiae) [3]): 6.10
- pKd (eIF4A (S. cerevisiae) [4]): 6.15
- pKd (eIF4A (S. cerevisiae) [5]): 7.05
- pKd (eIF4A (S. cerevisiae) [6]): 6.15
- pKd (eIF4A (S. cerevisiae) [7]): 6.57
- pKd (eIF4A (S. cerevisiae) [8]): 7.05
- pKd (eIF4A (S. cerevisiae) [9]): 7.35
- pKd (eIF4A (S. cerevisiae) [10]): 6.10
- pKd (eIF4A (S. cerevisiae) [11]): 6.10
- pKd (eIF4A (S. cerevisiae) [12]): 6.10
- pKd (eIF4A (S. cerevisiae) [13]): 7.35
- pKd (eIF4A (S. cerevisiae) [14]): 6.57
